According to US20250042994A1 (HAINAN SIMCERE ZAIMING PHARMACEUTICAL, published 2025):

T1: Human CD19-his protein (human, UniProt P15391 20-291)
T1 construct: bought protein; also called human CD19 protein; recombinant human CD19-His; not shown: His tag
T1 sequence (looked up): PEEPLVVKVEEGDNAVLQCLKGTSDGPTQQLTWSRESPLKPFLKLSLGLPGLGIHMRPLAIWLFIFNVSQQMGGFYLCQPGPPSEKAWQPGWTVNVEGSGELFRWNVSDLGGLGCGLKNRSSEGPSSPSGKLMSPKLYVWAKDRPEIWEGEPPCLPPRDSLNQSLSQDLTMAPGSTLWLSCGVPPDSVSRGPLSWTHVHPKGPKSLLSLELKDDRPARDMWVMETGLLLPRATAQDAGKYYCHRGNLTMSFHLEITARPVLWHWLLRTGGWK

T2: human CD19 exon1-3-his protein (human, UniProt P15391 20-186, limits assumed)
T2 construct: made in HEK293E cells; also called membrane-distal end; not shown: His tag
T2 sequence (looked up): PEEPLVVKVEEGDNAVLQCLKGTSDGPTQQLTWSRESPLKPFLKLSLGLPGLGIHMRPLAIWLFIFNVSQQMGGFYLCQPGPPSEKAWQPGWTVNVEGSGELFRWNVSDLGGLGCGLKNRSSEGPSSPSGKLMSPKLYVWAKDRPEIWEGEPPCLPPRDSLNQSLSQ

T3: murine CD19 protein (murine, UniProt P25918 17-287, limits assumed)
T3 construct: bought protein; also called commercial murine CD19
T3 sequence (looked up): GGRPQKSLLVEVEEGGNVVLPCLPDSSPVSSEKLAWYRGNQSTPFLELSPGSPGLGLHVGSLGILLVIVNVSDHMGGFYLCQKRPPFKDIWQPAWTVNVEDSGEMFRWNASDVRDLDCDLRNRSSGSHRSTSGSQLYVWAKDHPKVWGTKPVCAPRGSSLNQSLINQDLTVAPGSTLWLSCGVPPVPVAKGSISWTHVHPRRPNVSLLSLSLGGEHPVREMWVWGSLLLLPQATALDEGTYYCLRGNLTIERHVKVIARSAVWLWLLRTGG


Tests used:
Human CD19-his protein [1] = target: T1, Human CD19-his protein; experiment: ELISA, antibody at 0.01 nM
[2] = target: T2, human CD19 exon1-3-his protein; experiment: ELISA, coated at 2 ug/mL
murine CD19 protein = target: T3, murine CD19 protein; experiment: ELISA, coated murine CD19
How it was run: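 Plates coated overnight at 4° C with recombinant murine or monkey CD19 and blocked with 2% BSA. Chimeric antibodies, serially diluted from 100 nM, bound for 2 h at 37° C. TMB development for 10 min with OD450 read-out.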

Human CD19-his protein [3] = target: T1, Human CD19-his protein; experiment: ELISA, antibody at 100 nM
Human CD19-his protein [4] = target: T1, Human CD19-his protein; experiment: ELISA, antibody at 10 nM
Human CD19-his protein [5] = target: T1, Human CD19-his protein; experiment: ELISA on coated human CD19-His
Human CD19-his protein [6] = target: T1, Human CD19-his protein; experiment: ELISA, antibody at 1.00 nM
Human CD19-his protein [7] = target: T1, Human CD19-his protein; experiment: ELISA, antibody at 0.0001 nM
Human CD19-his protein [8] = target: T1, Human CD19-his protein; experiment: ELISA, antibody at 0.10 nM
Human CD19-his protein [9] = target: T1, Human CD19-his protein; experiment: ELISA, antibody at 0.001 nM

Binder | OD450 (Human CD19-his protein [1]) | binding result [2] | binding result (murine CD19 protein) | OD450 (Human CD19-his protein [3]) | OD450 (Human CD19-his protein [4]) | EC50 (read off the curve) (Human CD19-his protein [5]) [nM] | OD450 (Human CD19-his protein [6]) | OD450 (Human CD19-his protein [7]) | OD450 (Human CD19-his protein [8]) | OD450 (Human CD19-his protein [9])
F4.33.12 (antibody, human IgG1, V domains shown, human-murine chimeric antibody, human IgG1) VH: QVQLQQSGAELVRPGSSVKISCKGSGYAFSSYWMNWVKQRPGQGLEWIGQIYPGDGDTNYNGKFKGKATLTADKSSSTAYMQLSSLTSEDSAVYFCARAGFYYGSDSSMDYWGQGTSVTVSS VL: not shown | 0.11 | no binding | no binding | 1.64 | 1.72 | ~0.3 | 1.37 | 0.05 | 0.51 | 0.06
F4.22.6 (antibody, human IgG1, V domains shown, human-murine chimeric antibody, human IgG1) VH: QVQLQQSGPELVKPGASVKISCKASGYAFSSFWMNWVKQRPGQGLEWIGRIYPGDGDTNYNGKFKGKATLTADKSSTTAYMHLSSLTSVDSAVYFCTRSVITAVVDWYFDVWGAGTTVTVSS VL: QIVLSQSPAILSASPGEKVTLTCRASSSVNFMHWYQQKPGSSPKPWIYATSNLASGAPARFSGSGSGTSYSLTISRVEAEDAAAYYCQQWSSYPIFTFGSGTKLEIK | 0.17 | no binding | no binding | 0.88 | 0.96 | ~0.05 | 0.83 | 0.06 | 0.62 | 0.08

Next, values leading:

OD450 (Human CD19-his protein [1]) | binding result [2] | binding result (murine CD19 protein) | OD450 (Human CD19-his protein [3]) | OD450 (Human CD19-his protein [4]) | EC50 (read off the curve) (Human CD19-his protein [5]) [nM] | OD450 (Human CD19-his protein [6]) | OD450 (Human CD19-his protein [7]) | OD450 (Human CD19-his protein [8]) | OD450 (Human CD19-his protein [9]) | Binder
0.07 | no binding | no binding | 0.68 | 0.61 | ~0.5 | 0.43 | 0.05 | 0.16 | 0.05 | F4.41.1 (antibody, human IgG1, V domains shown, human-murine chimeric antibody, human IgG1) VH: QVQLQQSGAELVRPGTSVKVSCKASGYAFTNYLIEWVKQRPGQGLEWIGVINPGSGDTLYNEKFKGKATLTADKSSTTAYMQLSGLTSDVSAIYFCARSPPITTIVADYFDYWGQGTTLTVSS VL: DIQMTQTTSSLSASLGDRVTISCRASQDISNYLNWYQQKPDGTVKLLIYYTSRLHSGVPSRFSGSGSGADYSLTISNLEQEDIATYFCQQGKTLPYTFGGGTKLEIK
0.38 | no binding | no binding | 1.93 | 1.76 | ~0.03 | 1.89 | 0.06 | 1.56 | 0.09 | F4.48.12 (antibody, human IgG1, V domains shown, human-murine chimeric antibody, human IgG1) VH: QMQLKESGPGLVAPSQSLSITCTVSGFSLTDYGVSWIRQPPGKGLEWLGVIWGSGSTFYNSALTSRLSISKDNSKSQVFLKMNSLQTADTAMYFCAKHHYYGGSFAMDYWGQGTSVTVSS VL: DIQMTQASSSLSASLGDRVTISCKTSQDISNYLNWYQQKPDGTFKLLIHYTSRLHSGVPSRFSGSGSGSDYSLTISNLEREDIATYFCQQGNSLPYTFGGGTKLEMK
0.29 | no binding | no binding | 1.9 | 1.94 | ~0.07 | 1.98 | 0.07 | 1.1 | 0.1 | F4.21.2 (antibody, human IgG1, V domains shown, human-murine chimeric antibody, human IgG1) VH: QVQLKQSGPGLVQPSQSLSITCTVSGFSLSTYGVHWVRQSPGRGLEWLGVIWIGGTTDYNAAFISRLTISKDNSRGQVFFKMDSLQANDTAIYYCARKGYYKYDGGYYYAMDYWGQGTSVTVSS VL: DIQMTQSSSYLSVSLGGRVTITCKASDHINNWLAWYQQKPGNAPWLLISGATSLETGVPSRFSGSGSGKDYTLSISSLQTEDVATYYCQQYWSTPLTFGAGTKLELK
